Measured values from patent publication US20230235075A1 (DYNAMICURE BIOTECHNOLOGY, published 2023).

Columns and labels:
[1] = target: T1, Human CD93 on the cell surface (human CD93 expressing CHO cells; HUVEC, U937 and KG1a cells) (human, UniProt Q9NPY3 22-652); test: summary table, column 'Binding' (assay not given)
T1 construct: whole, on cells; also called hCD93 CHO cells; CHO-hCD93
T1 sequence (looked up): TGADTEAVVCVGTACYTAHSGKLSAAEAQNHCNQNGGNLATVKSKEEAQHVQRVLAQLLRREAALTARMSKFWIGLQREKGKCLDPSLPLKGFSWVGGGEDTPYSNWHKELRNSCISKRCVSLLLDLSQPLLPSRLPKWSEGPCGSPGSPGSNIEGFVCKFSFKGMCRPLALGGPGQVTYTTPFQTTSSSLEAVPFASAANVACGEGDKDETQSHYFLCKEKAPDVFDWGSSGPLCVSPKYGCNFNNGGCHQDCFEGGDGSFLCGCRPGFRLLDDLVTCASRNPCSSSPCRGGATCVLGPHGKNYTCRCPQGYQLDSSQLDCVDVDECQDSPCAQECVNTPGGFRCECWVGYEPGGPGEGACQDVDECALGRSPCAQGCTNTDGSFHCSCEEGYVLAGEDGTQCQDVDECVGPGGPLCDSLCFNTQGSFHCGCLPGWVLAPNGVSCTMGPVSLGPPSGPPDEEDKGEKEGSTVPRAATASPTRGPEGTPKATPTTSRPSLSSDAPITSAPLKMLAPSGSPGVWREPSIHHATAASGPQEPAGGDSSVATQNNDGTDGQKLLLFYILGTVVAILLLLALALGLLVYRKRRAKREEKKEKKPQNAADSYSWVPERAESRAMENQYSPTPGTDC

[2] = target: T2, Human CD93 recombinant protein (Sino Biological Inc, Catalog #12589-H08H) (human, UniProt Q9NPY3 22-580, biotinylated with EZ-LINK NHS-PEG4 biotin in the Octet assays); test: Octet epitope binning on biotinylated human CD93, antibody 10 µg/ml
T2 construct: also called hCD93; His-tagged human CD93
T2 sequence (looked up): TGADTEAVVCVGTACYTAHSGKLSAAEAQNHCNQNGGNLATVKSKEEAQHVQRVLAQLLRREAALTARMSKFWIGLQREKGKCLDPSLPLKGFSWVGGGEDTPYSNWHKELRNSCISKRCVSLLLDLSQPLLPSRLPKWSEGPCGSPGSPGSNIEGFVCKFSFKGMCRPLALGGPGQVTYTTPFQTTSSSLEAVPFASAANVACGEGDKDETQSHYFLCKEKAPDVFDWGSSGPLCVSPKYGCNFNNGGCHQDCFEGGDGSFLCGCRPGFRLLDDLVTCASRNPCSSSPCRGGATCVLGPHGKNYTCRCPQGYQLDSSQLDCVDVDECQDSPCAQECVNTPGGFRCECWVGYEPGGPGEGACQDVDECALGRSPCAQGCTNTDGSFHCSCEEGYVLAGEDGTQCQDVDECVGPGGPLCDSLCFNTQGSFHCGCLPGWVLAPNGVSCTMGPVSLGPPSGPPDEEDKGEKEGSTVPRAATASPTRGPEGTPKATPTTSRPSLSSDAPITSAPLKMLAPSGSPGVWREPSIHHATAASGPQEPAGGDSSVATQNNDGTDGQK
Method: Anti-CD93 antibody epitope bins were determined using Octet QKe (Fortebio). Human CD93 recombinant protein (Sino Biological Inc, Catalog #12589-H08H) were biotinylated using EZ-LINK NHS-PEG4 biotin (Thermo Fisher Scientific). Streptavidin biosensors tips (Fortebio) were used to capture biotinylated human CD93 protein (300 seconds in 5 μg/ml). The baseline was stabilized for 60 seconds in 1× kinetics buffer (Fortebio) before primary anti-CD93 antibodies (10 μg/ml) were allowed to associate for 300 seconds with captured protein. A panel of secondary anti-CD93 antibodies (10 μg/ml) were then allowed to associate with the antigen and primary antibody complex for additional 300 seconds. Signals were recorded for each binding event and data analysis was performed on ForteBio Data Analysis HT 11.1 software.

[3] = target: T1, Human CD93 on the cell surface (human …); test: FACS, CHO cells overexpressing human CD93

B1: 16G9 (antibody, V domains shown)
VH: EVQLQQSGPELVKPGASVKMSCKASGYTFTDYYMNWVKQSHGKSLEWIGRVNPNNGGKTYNQKFKGKATLTVDKSLSTAYMQLNSLTSEDSAVYYCARWRLRPVDYGMDYWGQGTSVTVSS
VL: DIVLTQSPASLAVSLGQRATISCRASQSVSTSSYSYMHWYQQKPGQPPKLLIKYASNLESGVPARFSGSGSGTDFTLNIHPVEEEDTATYYCQHSWEIPFTFGSGTKLEIK
notes: Mouse hybridoma monoclonal antibody
binding result [1]: binds
binding result [2]: binds

B2: 5H9 (antibody, IgG2a, V domains shown)
VH: QVQLQQSGPDLVKPGASVKISCKASGYAFSTYWMNWVKQRPGKGLEWIGRIFPGDGDANYNGKFKGKATLTADKSSSTAYMQLSSLTSEDSAVYFCTRTGAAYDFDPFPYWGQGTLVTVSA
VL: DIVMTQAAFSNPVTLGTSASISCSSSKSLLHSNGVTYLYWYLQRPGQSPQLLIYRMSNLASGVPDRFSGSGSGTDFTLRISRVEAEDVGIYYCAQMLERPFTFGSGTKLEIK
notes: also called 5H9 mIgG2a
binding result [1]: binds
binding result [2]: binds

B3: 17A7 (antibody, V domains shown)
VH: QVQLQQSGPELVKPGASVKISCKGSGYAFSTYWMNWVKQRPGKGLEWIGRIFPGDGDTDYDGKFKGKATLTADKSSNTAYMQLSSLTSEDSAVYFCARTGAAYEFDPFPYWGQGTLVTVSA
VL: DIVMTQAAFSNPVTLGTSASISCSSTKSLLHSSGITYLYWYLQRPGQSPQLLIYRMSNLASGVPDRFSGSGSGTDFTLRISRVEAEDVGVYYCAQMLERPFTFGSGTKLEIK
notes: as for B1
binding result [1]: binds

B4: Humanized 17B10 H1L1 (antibody, mouse IgG1, V domains shown)
VH: QVQLVQSGAEVKKPGSSVKVSCKASGYAFSSYWLNWVRQAPGQGLEWFGRIYPGDGDTDYNGKFKGRVTLTADKSTSTAYMELSSLRSEDTAVYFCVRGDGYWAMDYWGQGTTVTVSS
VL: DIVMTQSPLSLPVTPGEPASISCRFSQSLLHSNGITYLYWYLQKPGQSPQLLIYQMSNLASGVPDRFSGSGSGTDFTLKISRVEAEDVGVYYCAQNLELPWTFGGGTKLEIK
notes: Chimeric Fc: mouse IgG1 CH2 and CH3 domains and human CH1 domains
binding result [3]: binds

B5: Humanized 17B10 H3L1 (antibody, mouse IgG1, V domains shown)
VH: QVQLVQSGPEVKKPGESLKISCKASGYAFSSYWLNWVRQMPGKGLEWMGRIYPGDGDTDYNGKFKGQVTISADKSSGTAYLQLSSLKASDTAVYFCVRGDGYWAMDYWGQGTLVTVSS
VL: DIVMTQSPLSLPVTPGEPASISCRFSQSLLHSNGITYLYWYLQKPGQSPQLLIYQMSNLASGVPDRFSGSGSGTDFTLKISRVEAEDVGVYYCAQNLELPWTFGGGTKLEIK
binding result [3]: binds

B6: Humanized 17B10 H1L3 (antibody, mouse IgG1, V domains shown)
VH: QVQLVQSGAEVKKPGSSVKVSCKASGYAFSSYWLNWVRQAPGQGLEWFGRIYPGDGDTDYNGKFKGRVTLTADKSTSTAYMELSSLRSEDTAVYFCVRGDGYWAMDYWGQGTTVTVSS
VL: DIVMTQSPDSLAVSLGERATINCRFSKSLLHSNGITYLYWYQQKPGQPPKLLIYQMSNLASGVPDRFSGSGSGTDFTLTISSLQAEDVAVYYCAQNLELPWTFGGGTKLEIK
binding result [3]: binds

B7: Humanized 17B10 H1L2 (antibody, mouse IgG1, V domains shown)
VH: QVQLVQSGAEVKKPGSSVKVSCKASGYAFSSYWLNWVRQAPGQGLEWFGRIYPGDGDTDYNGKFKGRVTLTADKSTSTAYMELSSLRSEDTAVYFCVRGDGYWAMDYWGQGTTVTVSS
VL: DIVMTQTPLSLPVTPGEPASISCRFSQSLLHSNGITYLYWYLQKPGQSPQLLIYTMSNLASGVPDRFSGSGSGTDFTLKISRVEAEDVGVYYCAQNLELPWTFGGGTKLEIK
binding result [3]: binds

B8: Humanized 17B10 H2L1 (antibody, mouse IgG1, V domains shown)
VH: QVQLVQSGAEVVKSGASVKVSCKASGYAFSSYWLNWVRQAPGQGLEWFGRIYPGDGDTDYNGKFKGRVTLIRDTSTSTVYMELTSLTSEDTAVYYCVRGDGYWAMDYWGQGTLVTVSS
VL: DIVMTQSPLSLPVTPGEPASISCRFSQSLLHSNGITYLYWYLQKPGQSPQLLIYQMSNLASGVPDRFSGSGSGTDFTLKISRVEAEDVGVYYCAQNLELPWTFGGGTKLEIK
binding result [3]: binds

B9: Humanized 17B10 H2L3 (antibody, mouse IgG1, V domains shown)
VH: QVQLVQSGAEVVKSGASVKVSCKASGYAFSSYWLNWVRQAPGQGLEWFGRIYPGDGDTDYNGKFKGRVTLIRDTSTSTVYMELTSLTSEDTAVYYCVRGDGYWAMDYWGQGTLVTVSS
VL: DIVMTQSPDSLAVSLGERATINCRFSKSLLHSNGITYLYWYQQKPGQPPKLLIYQMSNLASGVPDRFSGSGSGTDFTLTISSLQAEDVAVYYCAQNLELPWTFGGGTKLEIK
binding result [3]: binds

B10: Humanized 17B10 H3L2 (antibody, mouse IgG1, V domains shown)
VH: QVQLVQSGPEVKKPGESLKISCKASGYAFSSYWLNWVRQMPGKGLEWMGRIYPGDGDTDYNGKFKGQVTISADKSSGTAYLQLSSLKASDTAVYFCVRGDGYWAMDYWGQGTLVTVSS
VL: DIVMTQTPLSLPVTPGEPASISCRFSQSLLHSNGITYLYWYLQKPGQSPQLLIYTMSNLASGVPDRFSGSGSGTDFTLKISRVEAEDVGVYYCAQNLELPWTFGGGTKLEIK
binding result [3]: binds

B11: 19B5 (antibody, V domains shown)
VH: DVNLVESGGGLVKLGGSLKLSCAASGFTFSNYYMSWVRQSPEKRLEWVATISNNGDSTYYLDTVKGRFTISRDSAENTLYLQMSSLISEDTAVYYCTRVGTGFTYWGQGTLVTVSA
VL: DIVLTQSPATLSVTPGDSVSLSCRASQSINNYLHWYQQRSHESPRLLIKFASQSISDIPSRFSGSGSGTDFTLSINSIETEDFGMYFCQQSNSWPLTFGAGTKLELK
notes: as for B1
binding result [1]: binds

B12: 19E12 (antibody, V domains shown)
VH: QVQLQQSGAELVRPGASVKLSCKASGYTFTDYEMHWVRQTPVHGLEWIGGIDPETGGTAYNQKFKGKATLTADKSSSTAYMELRSLTSEDSAVYYCTRGAWFAYWGQGTLVTVSA
VL: QAVVTQESALTTSPGETVTLTCRSSTGAVTTSNSANWVQEKPDHLFTGLIGGTNNRAPGVPARFSGSLIGDKAALTITGAQTEDEAIYFCALWYNNHFVFGGGTKLTVL
notes: as for B1
binding result [1]: binds
binding result [2]: binds

B13: 12H4 (antibody, V domains shown)
VH: EVQLQQSGPELVKPGASVKVSCKASGYTFTDYYIHWVKQRPGQGLEWIGEIYPGSDDAYYNEKFKGKATLTADKSSSTAYMQLSSLTSEDSAVYFCTRETTATAYWGQGTLVTVSA
VL: QIVLTQSPAIMSASPGEKVTITCSASSSVSLIYWFQQKPGTSPKLWIYSTSNLASGVPARFSGSGSGTSYSLTISRMEAEDAATYYCQQRSGYPPTFGGGTKLEIK
notes: as for B1
binding result [1]: binds

B14: 20C7 (antibody, V domains shown)
VH: EVQLQQSGPELVNPGASVKMSCKASGYTFTAYVMHWVKQKPGQGLEWIGYIFPYNDGTEYNEKFKGKATLTSDKSSSTAYMELSSLTSEDSAVYYCARRTDGNPYTMDYWGQGTSVTVSS
VL: DIVMTQSHKFMSTSVGDRVSITCKASQDVSTAVAWYQQKPGQSPKLLIHSASYRYTGVPDRFTGRGSGTDFTFTISSVQAEDLAVYYCQQHYSTPFTFGSGTKLEIK
notes: as for B1
binding result [1]: binds

B15: 17E6 (antibody, V domains shown)
VH: EVQLQQSGPELVKPGASVKMSCKASGYTFTSYVIHWVKQKPGQGLEWIGYINPYSDYTQYNEKFKGKATLTSDKSSSTAYMELSSLTSEDSAVYSCARRADGNPYAMDYWGQGTSVTVSS
VL: DIVMTQSHKFMSTSVGDRVSTTCKASQDVSTAVVWYQQKPGQSPKLLIYSASYRYTGVPDRFTGSGSGTDFTFTITSVQAEDLAVYYCQQHYSTPFTFGSGTKLEIK
notes: as for B1
binding result [1]: binds
